According to article PMC2917274, “Structure of Staphylococcus aureus adenylosuccinate lyase (PurB) and assessment of its potential as a target for structure-based inhibitor discovery” (Acta Crystallographica Section D: Biological Crystallography, 2010):

T1: SaPurB (Staphylococcus aureus, UniProt Q7A0G9)
T1 construct: gene purB; full length (domains described over residues 1-431); N-terminal His tag removed by TEV protease (modified pET15b); expressed in E. coli BL21(DE3) pLysS; dimer in gel filtration, homotetramer in crystal, each active site from three subunits
T1 sequence (Q7A0G9 1-431): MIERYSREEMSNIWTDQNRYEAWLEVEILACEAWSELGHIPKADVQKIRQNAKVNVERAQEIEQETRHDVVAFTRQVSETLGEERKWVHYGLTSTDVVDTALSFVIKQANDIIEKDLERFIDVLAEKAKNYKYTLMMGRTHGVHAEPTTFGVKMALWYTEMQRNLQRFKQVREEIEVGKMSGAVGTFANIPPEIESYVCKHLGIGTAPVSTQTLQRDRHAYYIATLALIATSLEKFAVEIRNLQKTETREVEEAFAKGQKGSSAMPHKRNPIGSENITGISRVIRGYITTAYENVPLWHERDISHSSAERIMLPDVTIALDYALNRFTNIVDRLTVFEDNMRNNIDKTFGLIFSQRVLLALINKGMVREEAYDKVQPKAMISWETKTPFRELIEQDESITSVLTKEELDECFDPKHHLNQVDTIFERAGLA

B1: Staphylococcus aureus adenylosuccinate lyase (PurB) (enzyme, UniProt Q2FFI7 1-431, looked up)
chain: T1 sequence (Q7A0G9 1-431)
notes: domains I-III span residues 1-431; theoretical subunit mass 49.6 kDa; Vector pET15b changed to carry a TEV site in place of the thrombin site; Dimer by gel filtration, tetramer in the crystal; also called SaPurB

Legend:
SaPurB = biological target: T1, SaPurB; assay: X-ray crystal structure, […] Å; type: binding; settings: co-crystallized with 25 mM AMP, pH 6.2, 293 K; active site; oxalate tentatively modelled nearby
[1] = biological target: the molecule itself; assay: SEC; Superdex 200 26/60, 50 mM Tris-HCl, 250 mM NaCl pH 7.5, column calibrated with molecular-weight standards; final stage of purification
[2] = biological target: the molecule itself; assay: crystal structure; 2.5 A, space group I222, one chain per asymmetric unit, tetramer built by crystallographic twofold axes; with AMP and oxalate; crystals at 293 K from 45% PEG 200, 0.2 M NaCl, 0.1 M sodium phosphate pH 6.2

Molecule | X-ray crystal structure, 2.5 Å (SaPurB) | stoichiometry N [1] | stoichiometry N [2]
Nc1ncnc2c1ncn2[C@@H]1O[C@H](COP(=O)(O)O)[C@@H](O)[C@H]1O [AMP] | The structure of AMP in the active site of SaPurB |  | 
B1 |  | 2 | 4
